Results reported in article PMC10030265, “The lipid linked oligosaccharide polymerase Wzy and its regulating co-polymerase, Wzz, from enterobacterial common antigen biosynthesis form a complex” (Open Biology, 2023).

How the values were obtained:
[1] = biological target: WzyEPA-GST-distrepII (Pectobacterium atrosepticum) (UniProt Q6CZF1); assay: cryo-EM structure; negative stain and single-particle cryo-EM of the WzyEPA : WzzEPA complex labelled with the IgG anti-strep tag II antibody; model at approximately 20 Å, C2 symmetry, dumbbell of two WzzEPA octamers
[2] = biological target: the molecule itself; assay: as above
[3] = biological target: T1, WzyEPA-distrepII (Pectobacterium atrosepticum, UniProt Q6CZF1 1-463); assay: quantitative immuno-dot blot; serial dilution of the co-purified complex on nitrocellulose, standard curves of each purified protein, HRP-coupled anti-His and anti-strep tag II, chemiluminescence; corrected for untagged Wzz; settings: both partners purified
T1 construct: WzyE, ECA polymerase, Pectobacterium atrosepticum SCRI 1043 (ATCC BAA-672); cloned into a proprietary vector constructed by Huanting Liu; Predicted 57 kDa; the distrepII tag is TEV protease-cleavable; source: DDM-solubilised membranes; not shown: distrepII, C-terminal, kept
T1 sequence (looked up): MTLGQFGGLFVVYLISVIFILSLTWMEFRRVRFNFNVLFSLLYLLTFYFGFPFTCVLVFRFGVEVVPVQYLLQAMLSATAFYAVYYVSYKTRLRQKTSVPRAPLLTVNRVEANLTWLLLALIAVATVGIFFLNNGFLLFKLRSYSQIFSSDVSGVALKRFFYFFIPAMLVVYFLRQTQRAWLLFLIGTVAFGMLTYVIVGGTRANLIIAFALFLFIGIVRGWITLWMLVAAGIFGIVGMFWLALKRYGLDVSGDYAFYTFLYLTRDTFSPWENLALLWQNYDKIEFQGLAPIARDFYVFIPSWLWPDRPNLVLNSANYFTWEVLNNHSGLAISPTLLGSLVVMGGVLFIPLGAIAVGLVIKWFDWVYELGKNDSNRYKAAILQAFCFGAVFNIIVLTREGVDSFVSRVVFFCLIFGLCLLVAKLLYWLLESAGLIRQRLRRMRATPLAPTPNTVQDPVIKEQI

[4] = biological target: the molecule itself; assay: cryo-EM structure; TEV-cleaved, SEC-purified WzzEPA : WzyEPA sample at 5 mg/ml in DDM; Titan Krios; C4 symmetry; 3.6 Å; only WzzEPA seen in the map

Molecule: His6-WzzEPA (from UniProt Q6CZE3 1-348) (natural protein)
- stoichiometry N (WzzEPA per WzyEPA) [1]: 8

B1: His6-WzzEPA (natural protein, Pectobacterium atrosepticum, UniProt Q6CZE3 1-348, looked up)
chain: MKSENLSTGNALIDNELDIRGLFRLLWRGKVWPIAIGLLFAVVALGYSYLVKQEWGATSITDKPTVNMLGGYYSQQQFLRNLDARSFSSPQPEQPSISAGAYDEFIMQLAAYDTRRDFWLQTDYYKQRLEGDEKADAALLDELVNNIQFTARDDGKKTNDSVKLVAETSSDSNTLLRQYVVFASQRAANHLNEEIKGAWAARTIFMKSQIKRQEAVAKAIYDREVRSVELALKIAQQQGISRSQTDTPADEIPASEMFLLGRPMLQARLETLQTSGPHYELDYDQNRAMLATLNVGPTLEASFQTYRYLRTPEEPVKRDSPRRAFLMVMWGAIGVLVGAGVALARRLR
notes: WzzE, polysaccharide co-polymerase of enterobacterial common antigen biosynthesis, Pectobacterium atrosepticum SCRI 1043 (ATCC BAA-672); cloned into pEHisTEV; Predicted 42 kDa; His6 tag is TEV protease-cleavable; The methods say that Wzz ran as a double band and that the lower band was not seen by the anti-His antibody (partly untagged); Isolated Wzz may have various oligomeric states; octamer in …
- stoichiometry N [2]: 8 subunits in the oligomer
- stoichiometry N [3]: 9.6 ± 1.8 His6-WzzEPA : WzyEPA-distrepII (molar ratio)

B2: WzzEPA (TEV protease cleaved, affinity tag removed) (natural protein, Pectobacterium atrosepticum, UniProt Q6CZE3 1-348, looked up)
chain: MKSENLSTGNALIDNELDIRGLFRLLWRGKVWPIAIGLLFAVVALGYSYLVKQEWGATSITDKPTVNMLGGYYSQQQFLRNLDARSFSSPQPEQPSISAGAYDEFIMQLAAYDTRRDFWLQTDYYKQRLEGDEKADAALLDELVNNIQFTARDDGKKTNDSVKLVAETSSDSNTLLRQYVVFASQRAANHLNEEIKGAWAARTIFMKSQIKRQEAVAKAIYDREVRSVELALKIAQQQGISRSQTDTPADEIPASEMFLLGRPMLQARLETLQTSGPHYELDYDQNRAMLATLNVGPTLEASFQTYRYLRTPEEPVKRDSPRRAFLMVMWGAIGVLVGAGVALARRLR
notes: WzzE, Pectobacterium atrosepticum SCRI 1043; residues I39-V337 modelled, residues 1-39 and 338-348 not visualized; also called full length WzzEPA; source: E. coli C43(DE3), co-expressed with WzyEPA; not shown: His6, N-terminal, cleaved
- stoichiometry N [4]: 8 subunits in the oligomer
